Consider one substance from paper doi:10.1101/2023.12.09.570830.

The test has as its target UmbC1 (untagged, in the Umb1 particle) (Streptomyces coelicolor A3(2) (endogenous)). The test can be described thus: cryo-EM structure.

The stoichiometry N is a count of units in the complex or per binding partner. Regarding UmbB1 (natural protein), the stoichiometry N stood at 5.
